Consider 2 molecules from patent publication US20230078265A1, “METHODS AND COMPOSITIONS FOR EDITING NUCLEOTIDE SEQUENCES” (The Broad Institute, Inc., priority 2019, published 2023).

In assay [1] the test system is HEK cells. Description: Npu intein-split prime editors, plasmid transfection of HEK cells, high-throughput sequencing. The format is cell-based. The settings on record: plasmids, split site 1023/1024. From the text:
This Example is focused on a PE fusion protein comprising the canonical SpCas9 (SEQ ID NO: 18). The split sites for other Cas9 proteins may be the corresponding same site, or may need to be optimized for each different Cas9 protein. In the instant Example, the prime editor was split between residues 1023 and 1024 of SpCas9 (SEQ ID NO: 18). This is referred to as the “1023/1024” split site.
Prime editors (PEs) exceed the AAV packaging capacity.
It was therefore determined whether mutation from the Cas9-native “SEQ” towards the Npu intein “CFN” sequence altered efficiency of prime editing.

Assay [2] deals with DNA. The settings on record: mutation relative to canonical SpCas9, SEQ ID NO: 18; cited from earlier work.

B1: 1024-CFN: intein-split PE with extein residues mutated to Npu-native CFN (protein)
chain: MKRTADGSEFESPKKKRKVIKIATRKYLGKQNVYDIGVERDHNFALKNGFIASNCFNEIGKATAKYFFYSNIMNFFKTEITLANGEIRKRPLIETNGETGEIVWDKGRDFATVRKVLSMPQVNIVKKTEVQTGGFSKESILPKRNSDKLIARKKDWDPKKYGGFDSPTVAYSVLVVAKVEKGKSKKLKSVKELLGITIMERSSFEKNPIDFLEAKGYKEVKKDLIIKLPKYSLFELENGRKRMLASAGELQKGNELALPSKYVNFLYLASHYEKLKGSPEDNEQKQLFVEQHKHYLDEIIEQISEFSKRVILADANLDKVLSAYNKHRDKPIREQAENIIHLFTLTNLGAPAAFKYFDTTIDRKRYTSTKEVLDATLIHQSITGLYETRIDLSQLGGDSGGSSGGSSGSETPGTSESATPESSGGSSGGSSTLNIEDEYRLHETSKEPDVSLGSTWLSDFPQAWAETGGMGLAVRQAPLIIPLKATSTPVSIKQYPMSQEARLGIKPHIQRLLDQGILVPCQSPWNTPLLPVKKPGTNDYRPVQDLREVNKRVEDIHPTVPNPYNLLSGLPPSHQWYTVLDLKDAFFCLRLHPTSQPLFAFEWRDPEMGISGQLTWTRLPQGFKNSPTLFNEALHRDLADFRIQHPDLILLQYVDDLLLAATSELDCQQGTRALLQTLGNLGYRASAKKAQICQKQVKYLGYLLKEGQRWLTEARKETVMGQPTPKTPRQLREFLGKAGFCRLFIPGFAEMAAPLYPLTKPGTLFNWGPDQQKAYQEIKQALLTAPALGLPDLTKPFELFVDEKQGYAKGVLTQKLGPWRRPVAYLSKKLDPVAAGWPPCLRMVAAIAVLTKDAGKLTMGQPLVILAPHAVEALVKQPPDRWLSNARMTHYQALLLDTDRVQFGPVVALNPATLLPLPEEGLQHNCLDILAEAHGTRPDLTDQPLPDADHTWYTDGSSLLQEGQRKAGAAVTTETEVIWAKALPAGTSAQRAELIALTQALKMAEGKKLNVYTDSRYAFATAHIHGEIYRRRGWLTSEGKEIKNKDEILALLKALFLPKRLSIIHCPGHQKGHSAEARGNRMADQAARKAAITETPDTSTLLIENSSPSGGSKRTADGSEFEPKKKRK
For the molecule B1, the “prime editing activity compared with full-length PE3” value in assay [1] is “recapitulates full-length PE3 activity”.

B2: 175-307 deletion: SpCas9 mutation relative to SEQ ID NO: 18 (protein)
chain: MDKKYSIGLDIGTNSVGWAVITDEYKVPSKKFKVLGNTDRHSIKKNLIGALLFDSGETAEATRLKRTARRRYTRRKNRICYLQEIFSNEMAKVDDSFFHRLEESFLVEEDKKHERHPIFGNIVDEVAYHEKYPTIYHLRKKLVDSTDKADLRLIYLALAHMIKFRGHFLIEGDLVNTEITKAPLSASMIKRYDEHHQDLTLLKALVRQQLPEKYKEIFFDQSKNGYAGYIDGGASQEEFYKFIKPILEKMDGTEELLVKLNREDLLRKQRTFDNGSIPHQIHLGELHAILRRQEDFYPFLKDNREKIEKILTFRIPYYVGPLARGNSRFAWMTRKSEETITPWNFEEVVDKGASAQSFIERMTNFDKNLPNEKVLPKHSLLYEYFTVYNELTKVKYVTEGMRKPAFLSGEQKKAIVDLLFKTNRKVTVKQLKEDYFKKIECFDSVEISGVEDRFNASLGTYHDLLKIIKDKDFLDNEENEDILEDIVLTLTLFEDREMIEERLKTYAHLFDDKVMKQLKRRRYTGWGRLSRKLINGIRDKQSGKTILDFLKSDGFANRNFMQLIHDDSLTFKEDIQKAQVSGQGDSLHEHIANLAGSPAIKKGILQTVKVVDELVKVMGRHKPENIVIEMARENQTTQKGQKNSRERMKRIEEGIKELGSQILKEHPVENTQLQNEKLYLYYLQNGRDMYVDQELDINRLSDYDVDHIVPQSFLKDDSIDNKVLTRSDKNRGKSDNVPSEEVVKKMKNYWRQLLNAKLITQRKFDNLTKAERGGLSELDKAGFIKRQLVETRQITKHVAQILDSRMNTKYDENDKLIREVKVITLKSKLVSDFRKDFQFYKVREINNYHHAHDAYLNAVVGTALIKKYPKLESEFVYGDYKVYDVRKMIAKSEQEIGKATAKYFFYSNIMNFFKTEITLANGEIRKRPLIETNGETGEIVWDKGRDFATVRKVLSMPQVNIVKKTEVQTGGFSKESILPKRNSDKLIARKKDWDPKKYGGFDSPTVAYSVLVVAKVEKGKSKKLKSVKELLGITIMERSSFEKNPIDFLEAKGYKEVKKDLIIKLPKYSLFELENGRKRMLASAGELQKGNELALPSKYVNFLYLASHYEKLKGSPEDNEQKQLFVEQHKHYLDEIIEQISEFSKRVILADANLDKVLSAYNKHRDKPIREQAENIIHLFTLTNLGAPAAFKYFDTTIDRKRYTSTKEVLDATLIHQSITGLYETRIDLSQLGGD
modifications: Streptococcus pyogenes
As for B2, the “decreased DNA cleavage” value in assay [2] is recorded as “About 50% decreased DNA cleavage”.
